The text below walks through data of patent US20130172283A1, “LYOPHILIZED FORMULATION OF PECTIN-ADRIAMYCIN CONJUGATE AND PREPARATION METHOD THEREOF” (CHONGQING LUMMY PHARMACEUTICAL CO., LTD., priority 2010, published 2013).

The nature of data set [1]: monitoring of drug loading rate in long-term storage (UV absorbance at 480 nm). It counts as physicochemical. As to conditions: initial, bulk drug. As to the method: 10.7 mg adriamycin hydrochloride was precisely weighed and placed in a 100 mL volumetric flask, diluted with sterile water for injection to volume as stock solution, and underwent ultrasonic treatment for 5 min for even mixing; 0.2 ml, 0.4 ml, 0.8 ml, 1.2 ml, 1.6 ml and 2 ml adriamycin hydrochloride stock solution were pipetted and placed in 5 ml volumetric flasks respectively, diluted with sterile water for injection to volume, and shook up. Using ultraviolet spectrophotometry, absorbance A values of adriamycin solution were determined at the series of concentration gradients at 480 nm, and linear regression was performed by taking absorbance A as a vertical coordinate and mass concentration C (mg·mL-1) of adriamycin as horizontal coordinate to obtain an equation: A=0.0178C+0.0284, R2=0.9994 (n=3).
1 mL PAC nanosuspension (prepared according to a preferable solution) was precisely pipetted and placed in a 50 mL volumetric flask (concentration of the PAC nanosuspension was 7.76 mg/mL), diluted with sterile water for injection to volume and shook up, and then proper amount was pipetted to determine absorbance at 480 nm so as to obtain adriamycin concentration Cx with the standard curve. Drug loading rate of the PAC=(Cx/7.76)*100%. […]

A short description of the next data set: solubility tests of PAC. It counts as physicochemical. As to conditions: repeated solubility tests. From the text: Insoluble drugs have two major problems in clinical application, one problem is low bioavailability due to low solubility of the drugs, and the other problem is that conventional formulation methods have certain restriction on application of the insoluble drugs.

Take pectin-adriamycin conjugate [PAC]: the drug loading rate in data set [1] is recorded as 25.8%. The solubility result in the data set “solubility tests of PAC” is given as “insoluble”.
